The results in this text go back to PMC12090727, “Cell binding, uptake, and infection of influenza A virus using recombinant antibody-based receptors” (Journal of Virology, 2025).

For assay [1], the target named is T1, hemagglutinin (HA) of A/Netherlands/602/2009 (pH1N1), on virions (Influenza A virus …, UniProt C3PSV2).
T1 construct: also called A/Netherlands/602/09; A/Neth/09
Briefly: flow cytometry on cells. The settings on record: partners not purified.

Assay [2] deals with T2, HA-hFc probe: H1N1 A/California/04/2009 HA ectodomain fused to human IgG1 Fc (Influenza A virus A/California/04/2009 …, UniProt C3W5S1).
T2 construct: also called HA-probe; HA-human Fc probe; source: High Five insect cells (recombinant baculovirus), purified (HiTrap Protein G); not shown: Fc (human IgG1), C-terminal, kept
Put plainly: flow cytometry on cells. The settings on record: one partner purified.

B1: fTfR-5J8 chimeric antibody-based receptor, stably expressed on A549 Slc35A1 KO cells (scFv, V domains shown)
VH: EVQLVESGPGLVKPSDILSLTCAVSGYSISSNYYWGWIRQPPGKGLEWIGSIYHSGSTYYKPSLESRLGISVDTSKNQFSLKLSFVSAADTAVYYCARHVRSGYPDTAYYFDKWGQGTLVTVSS
VL: SYVLTQPPSVSVAPGETARISCGGNNIGTKVLHWYQQTPGQAPVLVVYDDSDRPSGIPERFSGSNSGNTATLTISRVEVGDEADYYCQVWDISTDQAVFGGGTKLTVL
notes: also called LV-fTfR-5J8; LV-5J8-TfR
With B1, the binding result in assay [1] was “binds”.

B2: Flag-tagged fTfR-5J8 receptor, WT (Flag+) (scFv, V domains shown)
VH: EVQLVESGPGLVKPSDILSLTCAVSGYSISSNYYWGWIRQPPGKGLEWIGSIYHSGSTYYKPSLESRLGISVDTSKNQFSLKLSFVSAADTAVYYCARHVRSGYPDTAYYFDKWGQGTLVTVSS
VL: SYVLTQPPSVSVAPGETARISCGGNNIGTKVLHWYQQTPGQAPVLVVYDDSDRPSGIPERFSGSNSGNTATLTISRVEVGDEADYYCQVWDISTDQAVFGGGTKLTVL
notes: also called WT receptor
B2: the binding result in assay [2] is “binds”.
